# Results as given in paper PMC7312664, “Beneficial Effects of Inflammatory Cytokine-Targeting Aptamers in an Animal Model of Chronic Prostatitis”.
# Molecular target: IL-1b (human) (human, UniProt P01584 117-269)
# Assay: plate binding assay / ELISA with aptamer replacing primary antibody; dose-dependent; protein fixed in plate, n = 3; buffer, salt, pH and temperature not given in the material
# IL-1b (human), sequence (P01584 117-269): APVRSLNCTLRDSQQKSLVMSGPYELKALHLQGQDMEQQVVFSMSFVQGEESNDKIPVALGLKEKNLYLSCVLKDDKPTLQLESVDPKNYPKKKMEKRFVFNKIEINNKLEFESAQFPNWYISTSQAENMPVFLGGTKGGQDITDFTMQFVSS
binder,measurement,value
GAAGTATAGCGCAATAAACTCACCTCCCAC (ssDNA) [AptIL-1b],binding result,binds
